Tests used:
[1] = molecular target: monkey 4-1BB-his protein (monkey); experiment: ELISA, coated monkey 4-1BB-his; Ab 10 ug/ml
[2] = molecular target: monkey 4-1BB-his protein (monkey); experiment: ELISA, coated monkey 4-1BB-his; Ab 0.4 ug/ml
[3] = molecular target: monkey 4-1BB-his protein (monkey); experiment: ELISA, coated monkey 4-1BB-his; Ab 0.0006 ug/ml
[4] = molecular target: monkey 4-1BB-his protein (monkey); experiment: ELISA, coated monkey 4-1BB-his; Ab 0.0001 ug/ml
[5] = molecular target: monkey 4-1BB-his protein (monkey); experiment: ELISA, coated monkey 4-1BB-his; Ab 2 ug/ml
[6] = molecular target: monkey 4-1BB-his protein (monkey); experiment: ELISA, coated monkey 4-1BB-his; Ab 0.016 ug/ml
[7] = molecular target: monkey 4-1BB-his protein (monkey); experiment: ELISA, coated monkey 4-1BB-his; Ab 0.0032 ug/ml
[8] = molecular target: hFc-tagged human 4-1BB extracellular domain protein (4-1BB-hFc) (human) (UniProt Q07011); experiment: ELISA, coated 4-1BB; Ab concentration not given
Sequence of hFc-tagged human 4-1BB extracellular domain protein (4-1BB-hFc) (human) (Q07011 24-186 limits assumed): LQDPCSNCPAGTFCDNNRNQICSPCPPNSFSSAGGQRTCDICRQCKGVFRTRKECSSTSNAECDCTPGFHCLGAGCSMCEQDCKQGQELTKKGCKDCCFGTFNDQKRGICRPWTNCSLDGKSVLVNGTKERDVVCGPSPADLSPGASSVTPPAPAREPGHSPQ

[9] = molecular target: monkey 4-1BB-his protein (monkey); experiment: ELISA, coated monkey 4-1BB-his; Ab 0.08 ug/ml
OX40 = experiment: ELISA, coated OX40; Ab concentration not given
Sequence of OX40 (P43489 29-214): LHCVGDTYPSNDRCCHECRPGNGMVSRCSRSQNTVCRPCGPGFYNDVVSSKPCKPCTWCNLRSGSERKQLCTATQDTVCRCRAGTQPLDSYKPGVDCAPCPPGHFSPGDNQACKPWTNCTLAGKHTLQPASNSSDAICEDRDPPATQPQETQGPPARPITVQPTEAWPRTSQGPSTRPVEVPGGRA

GITR = experiment: ELISA, coated GITR; Ab concentration not given
Sequence of GITR (Q9Y5U5 26-162): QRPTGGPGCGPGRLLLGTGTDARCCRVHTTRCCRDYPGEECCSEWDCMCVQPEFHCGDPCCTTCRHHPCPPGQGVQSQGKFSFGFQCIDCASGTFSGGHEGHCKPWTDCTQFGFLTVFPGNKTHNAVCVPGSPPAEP

- OD450 nm [1]: 0.07 OD450 nm
- OD450 nm [2]: 0.07 OD450 nm
- OD450 nm [3]: 0.07 OD450 nm
- OD450 nm [4]: 0.07 OD450 nm
- OD450 nm [5]: 0.07 OD450 nm
- OD450 nm [6]: 0.07 OD450 nm
- OD450 nm [7]: 0.07 OD450 nm
- OD450 nm [8]: 0.36 OD450 nm
- OD450 nm [9]: 0.07 OD450 nm
- OD450 nm (OX40): 0.32 OD450 nm
- OD450 nm (GITR): 0.24 OD450 nm
Substance: IgG control (human IgG) (antibody)

Source: patent publication US20200347144A1
